For assay [1], the target named is T1, human amylin 3(a) receptor (human calcitonin receptor plus RAMP-3) (human, UniProt P30988 25-474; O60896 24-148, limits assumed).
T1 sequence (looked up) 1: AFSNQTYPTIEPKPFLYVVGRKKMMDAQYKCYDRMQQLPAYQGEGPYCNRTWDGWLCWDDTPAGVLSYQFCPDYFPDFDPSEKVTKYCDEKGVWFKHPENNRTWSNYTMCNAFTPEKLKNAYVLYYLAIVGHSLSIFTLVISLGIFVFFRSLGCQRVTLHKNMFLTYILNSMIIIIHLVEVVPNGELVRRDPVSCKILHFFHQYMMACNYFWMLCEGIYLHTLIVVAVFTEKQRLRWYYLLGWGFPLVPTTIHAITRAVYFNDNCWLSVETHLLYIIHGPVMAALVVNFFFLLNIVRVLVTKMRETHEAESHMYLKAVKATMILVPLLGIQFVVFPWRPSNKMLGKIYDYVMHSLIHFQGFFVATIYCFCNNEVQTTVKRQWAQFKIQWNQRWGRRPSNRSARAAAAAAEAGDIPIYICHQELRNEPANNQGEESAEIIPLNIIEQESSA
T1 sequence (looked up) 2: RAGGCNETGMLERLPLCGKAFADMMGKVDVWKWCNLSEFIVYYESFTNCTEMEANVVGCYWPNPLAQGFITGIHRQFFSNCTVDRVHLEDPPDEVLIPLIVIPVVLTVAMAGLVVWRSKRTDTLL
The assay can be described thus: cell-based or functional assay.

Assay [2] has as its target T2, human calcitonin receptor (human, UniProt P30988 25-474).
T2 sequence (looked up): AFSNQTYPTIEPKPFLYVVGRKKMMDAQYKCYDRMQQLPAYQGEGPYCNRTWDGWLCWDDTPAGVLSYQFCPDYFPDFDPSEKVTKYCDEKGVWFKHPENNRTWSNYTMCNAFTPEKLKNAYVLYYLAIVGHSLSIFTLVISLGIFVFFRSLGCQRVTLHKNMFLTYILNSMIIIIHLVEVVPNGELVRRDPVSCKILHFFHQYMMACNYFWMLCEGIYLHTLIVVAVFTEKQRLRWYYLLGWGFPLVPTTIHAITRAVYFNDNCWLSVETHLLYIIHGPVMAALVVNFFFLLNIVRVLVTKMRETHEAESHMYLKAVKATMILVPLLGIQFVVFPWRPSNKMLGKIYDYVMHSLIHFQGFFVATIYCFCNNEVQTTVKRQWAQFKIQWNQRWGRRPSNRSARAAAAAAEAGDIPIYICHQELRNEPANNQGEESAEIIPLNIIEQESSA
The assay can be described thus: cell-based or functional assay.

Assay [3] concerns the target T1, human amylin 3(a) receptor (human …). The assay can be described thus: SPA competition binding, displacement of 125I-rat amylin from membranes of Amylin 3(a)/CRE-luc BHK cells (Assay V). On the procedure:
The binding assay was performed using scintillation proximity assay (SPA) beads (RPNQ0001) from PerkinElmer and cell membranes from the Amylin 3(a)/CRE-luc cells (as described in Assay (II)) were used. Membranes were prepared in the following way; the cells were rinsed with PBS and incubated with Versene for approximately 5 min before harvesting. The cells were flushed with PBS and the cell-suspension was centrifuged for 5 min at 1000 rpm. Cells were homogenized (ultrathurrax) in a buffer containing 20 mM Na-HEPES and 10 mM EDTA (pH 7.4) and centrifuged at 20.000 rpm for 15 min. The resulting pellet was resuspended, homogenized and centrifuged (20.000 rpm, 15 min) in a buffer containing 20 mM Na-HEPES and 0.1 mM EDTA (pH 7.4, buffer 2). The resulting pellet was resuspended in buffer 2 and protein concentration was measured (BCA protein Assay, Pierce). The homogenate was kept cold during the whole procedure. The membranes were kept at −80° C. until use. The assay was performed in a 384 well Optiplate (PerkinElmer) in a total volume of 40 ul. Membranes were mixed with SPA beads. Final concentration of membranes 35 ng/μL final and SPA beads was 0.05 mg/well. Test-compounds were dissolved in DMSO and further diluted in assay buffer (50 mM Hepes, pH 7.4, 1 mM CaCl2, 5 mM MgCl₂, 0.1% OA and 0.02% Tween20). […] The final mixture was incubated with shaking at 400 rpm for 120 min at 25° C. prior to centrifugation (1500 rpm, 10 min). Samples were analyzed on TopCounter™ (Packard). The IC₅₀ was calculated using (one site binding competition analysis) GraphPad Prism5 as a measure of receptor affinity.
For orientation: Loss of bound radioactivity is the signal in a displacement assay; it reports binding, not function.

Assay [4] deals with T3, human amylin receptor (amylin 3(a) receptor: human calcitonin receptor co-expressed with RAMP-3) (human, UniProt P30988 25-474; O60896 24-148, limits assumed).
T3 sequence (looked up) 1: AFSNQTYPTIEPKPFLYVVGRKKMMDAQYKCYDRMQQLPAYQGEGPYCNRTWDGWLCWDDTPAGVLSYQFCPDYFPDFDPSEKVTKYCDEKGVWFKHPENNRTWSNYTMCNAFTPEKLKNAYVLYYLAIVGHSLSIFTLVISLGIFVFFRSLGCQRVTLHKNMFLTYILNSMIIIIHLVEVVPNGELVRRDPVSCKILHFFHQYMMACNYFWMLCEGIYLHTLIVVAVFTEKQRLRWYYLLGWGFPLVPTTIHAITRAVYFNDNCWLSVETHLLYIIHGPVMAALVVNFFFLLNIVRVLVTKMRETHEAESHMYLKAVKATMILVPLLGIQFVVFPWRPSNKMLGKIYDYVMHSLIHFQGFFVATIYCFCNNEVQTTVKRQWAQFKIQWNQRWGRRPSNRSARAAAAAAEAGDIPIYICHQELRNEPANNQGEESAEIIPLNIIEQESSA
T3 sequence (looked up) 2: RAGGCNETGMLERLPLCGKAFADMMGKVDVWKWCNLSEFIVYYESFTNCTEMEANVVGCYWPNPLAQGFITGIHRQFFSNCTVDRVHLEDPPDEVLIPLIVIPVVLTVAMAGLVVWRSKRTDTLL
The assay can be described thus: cell-based or functional assay.

Assay [5] addresses T4, human calcitonin receptor (human, UniProt P30988 25-474).
T4 sequence (looked up): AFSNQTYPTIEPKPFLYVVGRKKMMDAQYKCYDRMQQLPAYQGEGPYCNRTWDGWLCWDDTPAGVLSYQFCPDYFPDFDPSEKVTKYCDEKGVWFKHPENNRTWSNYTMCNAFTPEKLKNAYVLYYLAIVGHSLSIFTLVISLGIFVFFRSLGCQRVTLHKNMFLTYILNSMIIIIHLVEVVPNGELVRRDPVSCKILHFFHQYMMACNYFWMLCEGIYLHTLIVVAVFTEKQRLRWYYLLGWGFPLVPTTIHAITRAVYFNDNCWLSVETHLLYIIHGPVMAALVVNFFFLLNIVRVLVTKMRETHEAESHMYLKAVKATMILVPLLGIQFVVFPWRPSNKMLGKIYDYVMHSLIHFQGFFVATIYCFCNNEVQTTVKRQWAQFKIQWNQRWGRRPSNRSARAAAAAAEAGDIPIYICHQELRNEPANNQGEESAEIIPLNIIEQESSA
The assay can be described thus: cell-based or functional assay. This is another data set of the same source.

We go through 2 molecules from patent US20140087995A1 (published 2014).

Like-named read-outs stand apart in the source and are kept apart here. Numbered stars: 1 amine (or outer) side, 2 acyl side, 3 side chain; on linkers, the order of the positions; unused ones are H or OH. Bridge positions count the residues as written; N and C are the ends. Side chains are listed from the residue outwards. Ends that are not written are not given here. * marks the point of attachment. C20 diacid = O=C(O)CCCCCCCCCCCCCCCCCCC(=O)*; γGlu = O=C(O)[C@H](CCC(=O)[*:2])N[*:1]; AEEA = NCCOCCOCC(=O)O

B1: N^α1-[(4S)-4-carboxy-4-(19-carboxynonadecanoylamino)butanoyl]-[Glu14,Arg17,Pro21,Pro27]-h-amylin (peptide)
peptide: KCNTATCATQRLAEFLRHSSPNFGAIPSSTNVGSNTY
modifications: C20 diacid-gGlu on the alpha amino group of the N-terminal residue (position 1); disulfide bridge Cys2-Cys7; C-terminal amide
notes: also called compound 9
With B1, in assay [1], the “Ratio hCT/hAmylin funct.” value came to 7.4 and the “hAmylin-R funct. EC50” value was 0.175 nM. Also, the “hCTR funct. EC50” value in assay [2] is 1.29 nM. Moreover, in assay [3], the half-maximal inhibitory concentration (IC50) (as a rule, the midpoint of a concentration-inhibition curve) amounted to 0.143 nM.

B2: N^ε-[2-[2-[2-[[(4S)-4-carboxy-4-(19-carboxynonadecanoylamino)butanoyl]amino]ethoxy]ethoxy]acetyl]Lys[Arg1,Arg17,Pro21,Pro27,His35]-h-amylin (peptide)
peptide: K([AEEA-γGlu-C20 diacid])RCNTATCATQRLANFLRHSSPNFGAIPSSTNVGSHTY-NH2
modifications: disulfide 3-8; N-terminus assumed
SMILES: CC[C@H](C)[C@H](NC(=O)[C@H](C)NC(=O)CNC(=O)[C@H](Cc1ccccc1)NC(=O)[C@H](CC(N)=O)NC(=O)[C@@H]1CCCN1C(=O)[C@H](CO)NC(=O)[C@H](CO)NC(=O)[C@H](Cc1c[nH]cn1)NC(=O)[C@H](CCCNC(=N)N)NC(=O)[C@H](CC(C)C)NC(=O)[C@H](Cc1ccccc1)NC(=O)[C@H](CC(N)=O)NC(=O)[C@H](C)NC(=O)[C@H](CC(C)C)NC(=O)[C@H](CCCNC(=N)N)NC(=O)[C@H](CCC(N)=O)NC(=O)[C@@H](NC(=O)[C@H](C)NC(=O)[C@@H]1CSSC[C@H](NC(=O)[C@H](CCCNC(=N)N)NC(=O)[C@@H](N)CCCCNC(=O)COCCOCCNC(=O)CC[C@H](NC(=O)CCCCCCCCCCCCCCCCCCC(=O)O)C(=O)O)C(=O)N[C@@H](CC(N)=O)C(=O)N[C@@H]([C@@H](C)O)C(=O)N[C@@H](C)C(=O)N[C@@H]([C@@H](C)O)C(=O)N1)[C@@H](C)O)C(=O)N1CCC[C@H]1C(=O)N[C@@H](CO)C(=O)N[C@@H](CO)C(=O)N[C@H](C(=O)N[C@@H](CC(N)=O)C(=O)N[C@H](C(=O)NCC(=O)N[C@@H](CO)C(=O)N[C@@H](Cc1c[nH]cn1)C(=O)N[C@H](C(=O)N[C@@H](Cc1ccc(O)cc1)C(N)=O)[C@@H](C)O)C(C)C)[C@@H](C)O
notes: 38 residues: N-terminal extension by Lys (-1K); also called compound 45
B2: in assay [4], the “hAmylin-R funct. EC50” value was determined as 0.594 nM. Moreover, in assay [5], the “Ratio hCT/hAmylin funct. (hCTR EC50 against hAmylin-R EC50)” value amounted to 17 and the “hCTR funct. EC50” value was determined as 10.1 nM.
